Measured values published in US20040086512A1.

Molecular target: GST-Vif fusion protein (HIV-1 (HIV-1NL4-3)) (UniProt P12504)
Experiment: Vif-Vif binding assay (GST pull-down) without peptide, set as 100%

Sequence of GST-Vif fusion protein (HIV-1 (HIV-1NL4-3)) (P12504 whole entry, the tested form may be a part): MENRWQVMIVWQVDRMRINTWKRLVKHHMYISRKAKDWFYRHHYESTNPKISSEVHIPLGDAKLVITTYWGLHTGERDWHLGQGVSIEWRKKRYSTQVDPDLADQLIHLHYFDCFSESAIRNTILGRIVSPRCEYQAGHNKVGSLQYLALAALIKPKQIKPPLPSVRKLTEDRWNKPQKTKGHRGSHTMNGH
Sequence of in vitro translated ^35S-labeled HIV-1NL4-3 Vif protein, P12504 1-192 (other; ^35S-labeled (in vitro translation in the presence of ^35S-methionine); other documents disagree on this pair) (P12504 whole entry): as the sequence (P12504 whole entry, the tested form may be a part) above

**Q.** For “in vitro translated ^35S-labeled HIV-1NL4-3 Vif protein, P12504 1-192 (other; ^35S-labeled (in vitro translation in the presence of ^35S-methionine); other documents disagree on this pair)”, which ^35S-Vif binds with GST-Vif (%) is on record?
**A.** Its ^35S-Vif binds with GST-Vif (%) is 100%.
